Assay: soluble on expression in E. coli; label from the status in PepcDB or PDB records

| Sequence | soluble on expression in E. coli |
| --- | --- |
| GDDNEIEIPKAPVLEKAQLALAIKSEEGAVTKTGETTPTDADVNTLTVGVFGVDGWSVIYTKDATPNSDGTKDVGPQEVYAGEAHVVVVANAAPVIQTELAKAKDITDFIETTINLSDETLTKGLTMSSKVLDVTLVANTTNYIGYDDEVGDITVKDISGKEVYGAGPVPLVRDVASIALAGADIGNPENANYESKSFVLKEVFIASAKGVSSVASTEEWGTIEKDFFGDTHFGYLDYKVGLLFLTSPNNIDEGSYKKGLQTKYDALAKKHVENDPALNHEFYVYENTKGEVKSGESNVNEAYANHTLLIVKGDYTYLPQGAKESITKENCYYAIPVGEEVTIDGTEKRSKFYVQRNYKYEISLTIIGPGSEIPYDPMISTNVSASVKVEPWNVKTIHEEVE | soluble |
| GDKAYTDAESYTKGLHKIYSVWALSGQDGSSSSDISGLDAGNTALLRCWWTLQEQPTDEMKNAWNDAWCTEVNYMTWTTNKVEPIEGVYQRCMYIVALVNEFLKNIPNAPESIDKESYIAQARFNRAFAYYVLMDMFALPPFITEKNYSIEPAPLSREDLFNWIEAELNEIKPNLPSPRSEYGVADQAVASALLARMYLNAEIYTGKARYTECINACNEVIKAGYQLADNYADLFKADNGENPDTKKEIIYPIIFDGDKTQSWGMAAIIIGARGAEDKDVLLAHSGVDQGWAGFRATSNLVHLFDFQNDEEPKASEIQDKRGIFYDKGRSIDITSSVSGTFETEGWSVFKFSNLNSNGQPGKNTLWVDTDFPMFRLGDIYLMYAEAVARGGEGSKASAVEYINALRKRAYGDDKHNISENWLEENNFRNLLDERGRELYWEGIRRTDLVRFDLLTSGSYTWDFKGGINTGVGVNKRYNVYPIPVTDLTVNGNLQQNEGY | soluble |
| GDWLDLNTTSSVETGQAIVTLDDAQIALNGIYRLASGHSYYGDNYWYYGDCRAADVQARITKGDGKRVSPYYEYNVLASDNLNIVLPWNTVYKVIRQTNNLIQKIESGSIQSSDTKELNRIKSEALVMRGLSLFNLTRLFGMPYTNDKGASLGVPIETSPSDPTHKPSRSTVAQCYEQVVSDMSNALSGLRQETSNGYINYWAAQALLSRVYLNMGEYQKAYDAATDVIKNNGGRYQLYSYEEYPNVWGQDFQSESLFELYITLSEPSGGTGGEGAPMVYANEATVDWNNLILSEDFLNLLNEDPKDVRHCLTKESVIENNTGLPAAAMHEKVYLAKFPGKTGDDPKTNNICIIRLSEVYLNAAEAGLKKGTDIEEAQGYLNDIISRRTTDTSQQVSTETFTLDRILKERRKELVGEGEVFYDYLRNGLAIERKGSWHLETLKASNAQKIEATDLRIALPIPQSEIDANPNIQQNPR | soluble |
| GEAPADRLKALVDAAVQPVMKANDIPGLAVAISLKGEPHYFSYGLASKEDGRRVTPETLFEIGSVSKTFTATLAGYALTQDKMRLDDRASQHWPALQGSRFDGISLLDLATYTAGGLPLQFPDSVQKDQAQIRDYYRQWQPTYAPGSQRLYSNPSIGLFGYLAARSLGQPFERLMEQQVFPALGLEQTHLDVPEAALAQYAQGYGKDDRPLRVGPGPLDAEGYGVKTSAADLLRFVDANLHPERLDRPWAQALDATHRGYYKVGDMTQGLGWEAYDWPISLKRLQAGNSTPMALQPHRIARLPAPQALEGQRLLNKTGSTNGFGAYVAFVPGRDLGLVILANRNYPNAERVKIAYAILSGLEQQGKVPLKR | soluble |
| GEYKMILVVRNDLKMGKGKVAAQCSHAAVSAYKQIQRRNPEMLKQWEYCGQPKVVVKAPDEETLIALLAHAKMLGLTVSLIQDAGRTQIAPGSQTVLGIGPGPADLIDKVTGHLKLY | soluble |
| GGGSGGSKKDEHKQQGELYMWDSIDQKWTRHYCAIADAKLSFSDDIEQTMEEDNPLGSLCRGILDLNTYNVVKAPQGKNQKSFVFILEPKQQGDPPVEFATDRVEELFEWFQSIREITWKIDTK | soluble |
| GGHDVPLTNYLNAQYYTDITLGTPPQNFKVILDTGSSNLWVPSNECGSLACFLHSKYDHEASSSYKANGTEFAIQYGTGSLEGYISQDTLSIGDLTIPKQDFAEATSEPGLTFAFGKFDGILGLGYDTISVDKVVPPFYNAIQQDLLDEKRFAFYLGDTSKDTENGGEATFGGIDESKFKGDITWLPVRRKAYWEVKFEGIGLGDEYAELESHGAAIDTGTSLITLPSGLAEMINAEIGAKKGSTGQYTLDCNTRDNLPDLIFNFNGYNFTIGPYDYTLEVSGSCISAITPMDFPEPVGPLAIVGDAFLRKYYSIYDLGNNAVGLAKAI | soluble |
| GGMEVLDLVTGPDSVTEIEAFLNPRMGQPPTPESLTEGGQYYGWSRGINLATSDTEDSPGNNTLPTWSMAKLQLPMLNEDLTCDTLQMWEAVSVKTEVVGSGSLLDVHGFNKPTDTVNTKGISTPVEGSQYHVFAVGGEPLDLQGLVTDARTKYKEEGVVTIKTITKKDMVNKDQVLNPISKAKLDKDGMYPVEIWHPDPAKNENTRYFGNYTGGTTTPPVLQFTNTLTTVLLDENGVGPLCKGEGLYLSCVDIMGWRVTRNYDVHHWRGLPRYFKITLRKRWVKNPYP | soluble |
| GGSGGTSTAGNPNVNVPNNQITAKSKKEFIQQAMPIAKAIEEKWGVPAEVVIAQAALESGWGKHVKGNAYFGIKGKGSQGSINFGTHEVINGKKISINDNFASYGGFGDAANGYGEFLNKNKRYREAFKHKDNPVEFAKAIARAGYATDPDYANKLTKIIQSNKF | not soluble |
| GGSGWNADNVDPSQCIKQSGVQYTYNSGVSVCMQGLNEGKVRGVSVSGVFYYNDGTTSNFKGVVTPSTPVNTNQDINKTNKVGVQKYRALTEWVGSRSHHHHHH | soluble |
| GGVQLNFGGNFTYNKNEILSLGNVDVQKDARTIRMVGKEFNAFYGYKSDGIFQSKEEIANAPKYTMISNDRLIPGDIKLVDINGDGEINPDDKVILSSENPKYTFAFNLGARWKMFDINLFFQGAAGVSRYFTDEFYGEFNGDSGHPSNHWLGRWTPENPTNKWPRASKFRTYNLPETTCSDFWLVNTNYLRLKDIQVGFNVPKEWLQAVRLGSARIYYSGTNLLTFSKTPQGIDPEAPAGWGAYYPHVKTHSIGINITL | not soluble |
| GGVVVTPRAPYIHDLDGLPMAWDLVEWPIYTYRAKNDARLAIVSSSRGCKQQCSFCSQQLFWSQSWRARSAENFVAELEMLHTVHGVQVAMLSDEIPTFDRQRWVRILDLMIERQVPVKLLMETRVDDILRDADIMDRYREGGVEHIYVGVEAGTQETLDLFKKDTQVEQSKQAIDLINNADIVSETSFVLGMPDDTPESIAQTIELAKHYNPDMAFFLAIAPWPYAELYPQLEEYVATKDYRKYNLVEPVIKPKHMTLEELERQLGKASQQFFMH | not soluble |
| GHHHHHHAIAENLYFQSMEYGHHARPDSKRPLDEGSPAAAGLTSKKANEALTRNRELTTVLVKNLPKSYNQNKVYKYFKHCGPIIHVDVADSLKKNFRFARIEFARYDGALAAITKTHKVVGQNEIIVSHLTECTLWMTNFPPSYTQRNIRDLLQDINVVALSIRLPSLRFNTSRRFAYIDVTSKEDARYCVEKLNGLKIEGYTLVTKVSNPLEKSKRTDSATLEGREIMIRNLSTELLDENLLRESFEGFGSIEKINIPAGQKEHSFNNCCAFMVFENKDSAERALQMNRSLLGNREISVSLADKKP | soluble |
| GHMAKHQIGVIGLAVMGKNLALNIESKGYSVAVYNRLREKTDEFLQEAKGKNIVGTYSIEEFVNALEKPRKILLMVKAGAPTDATIEQLKPHLEKGDIVIDGGNTYFKDTQRRNKELAELGIHFIGTGVSGGEEGALKGPSIMPGGQKEAHELVRPIFEAIAAKVDGEPCTTYIGPDGAGHYVKMVHNGIEYGDMQLIAEAYFLLKHVLGMDAAELHEVFADWNKGELNSYLIEITADIFTKIDEETGKPLVDVILDKAGQKGTGKWTSQNALDLGVPLPIITESVFARFLSAMKDERVKASKVLAGPAVKPFEGDRAHFIEAVRRALYMSKICSYAQGFAQMKAASEEYNWNLRYGDIAMIFRGGCIIRAQFLQKIKEAYDRDPALSNLLLDSYFKDIVERYQDALREIVATAAMRGIPVPGSASALAYYDSYRTAVLPANLIQAQRDYFGAHTYERVDKEGIFHTEWLK | soluble |
| GHMAKTDRSQPSVLARIAAFRTGLSAEASAADYLERQGYRILARRFKTRCGEIDLVAQRDALVAFVEVKARGNVDDAAYAVTPRQQSRIVAAAEAWLSRHPEHAMSELRFDAILIAPNTAPRHLPGAFDATPGS | soluble |
| GHMDIAEPAELDADELKRVLEALLLVIDTPVTADALAAATEQPVYRVAAKLQLMADELTGRDSGIDLRHTSEGWRMYTRARFAPYVEKLLLDGARTKLTRAALETLAVVAYRQPVTRARVSAVRGVNVDAVMRTLLARGLITEVGTDADTGAVTFATTELFLERLGLTSLSELPDIAPLLPDVDTIDDLSESLDSEPRFIKLTGELASEQTLSFDVDRD | soluble |
| GHMEERVLGMPAVESNMFPLGKQAPPFALTNVIDGNVVRLEDVKSDAATVIMFICNHCPFVKHVQHELVRLANDYMPKGVSFVAINSNDAEQYPEDSPENMKKVAEELGYPFPYLYDETQEVAKAYDAACTPDFYIFDRDLKCVYRGQLDDSRPNNGIPVTGESIRAALDALLEGRPVPEKQKPSIGCSIKWKPSA | soluble |
| GHMFESAEVGHSIDKDTYEKAVIELREALLEAQFELKQQARFPVIILINGIEGAGKGETVKLLNEWMDPRLIEVQSFLRPSDEELERPPQWRFWRRLPPKGRTGIFFGNWYSQMLYARVEGHIKEAKLDQAIDAAERFERMLCDEGALLFKFWFHLSKKQLKERLKALEKDPQHSWKLSPLDWKQSEVYDRFVHYGERVLRRTSRDYAPWYVVEGADERYRALTVGRILLEGLQAALATKERAKRQPHAAPLVSSLDNRGLLDSLDLGQYLDKDAYKEQLAAEQARLAGLIRDKRFRQHSLVAVFEGNDAAGKGGAIRRVTDALDPRQYHIVPIAAPTEEERAQPYLWRFWRHIPARRQFTIFDRSWYGRVLVERIEGFCAPADWLRAYGEINDFEEQLSEYGIIVVKFWLAIDKQTQMERFKEREKTPYKRYKITEEDWRNRDKWDQYVDAVGDMVDRTSTEIAPWTLVEANDKRFARVKVLRTINDAIEAAYKKDKGA | soluble |
| GILRTQHTIRDSELNIKNSKMSDSVNARESNVYMAKLAEQAERYDEMAKYMKDVVEARQESEELTVEERNLLSVAYKNAVGSRRSSWRIISSVEQKEHSRNAEDASKMCGKYRSKVEAELTDICNDILTMLDKHLIPTATSPDSKVFYFKMKGDYHRYISEFSTGDSKQSSAEDALKAYKDATVVAKDLEPTHPIRLGLALNFSVFHYEILNEPRAAIDMAKEAFEMAIEQLDKLSEDCYKDSTLIMQLLRDNLTLWTAD | soluble |
| GLDVAISQNGFFRLVDSNGSVFYSRNGQFKLDENRNLVNMQGMQLTGYPATGTPPTIQQGANPAPITIPNTLMAAKSTTTASMQINLNSTDPVPSKTPFSVSDADSYNKKGTVTVYDSQGNAHDMNVYFVKTKDNEWAVYTHDSSDPAATAPTTASTTLKFNENGILESGGTVNITTGTINGATAATFSLSFLNSMQQNTGANNIVATNQNGYKPGDLVSYQINNDGTVVGNYSNEQEQVLGQIVLANFANNEGLASQGDNVWAATQASGVALLGTAGSGNFGKLTNGALEASNVDLSK | soluble |
| GLISDIIACPGMDYCALATARSIPVAQEIATRFEELKLEHEIGALKIKISGCINACGHHHVGHIGILGLDRAGVENYQITLGGDATETAAIGERTGPGFAYDQIVPAVERIVETYLDQRRDREESFIETYRRVGMAPFKAALYPE | not soluble |

— the DeepSol protein solubility set
